Tests used:
Experiment in all cases: cell-based or functional assay
[1] = target: HIV-1 IAVI-C22 envelope glycoprotein (Env) on pseudovirus (HIV-1)
[2] = target: HIV-1 IAVI-C18 envelope glycoprotein (Env) on pseudovirus (HIV-1)
[3] = target: HIV-1 93IN905 envelope protein (Env) on pseudotyped virus (HIV-1 isolate 93IN905)
[4] = target: HIV-1 92TH021 envelope protein (Env) on pseudotyped virus (HIV-1 isolate 92TH021)
[5] = target: HIV-1 APV-6 envelope glycoprotein (Env) on pseudovirus (HIV-1)
[6] = target: HIV-1 NL43 envelope protein (Env) on pseudotyped virus (HIV-1 NL43)
[7] = target: HIV-1 Env of isolate 93MW959 (pseudovirus) (HIV-1 isolate 93MW959, subtype C)
[8] = target: HIV-1 JRFL envelope glycoprotein (Env) on pseudovirus (HIV-1)
[9] = target: HIV-1 MGRM-D-001 envelope glycoprotein (Env) on pseudovirus (HIV-1)
[10] = target: HIV-1 Env of isolate MG RM-AG-005 (HIV-1)
[11] = target: HIV-1 Env of isolate 92UG005 (subtype D) (HIV-1)
[12] = target: HIV-1 APV17 envelope glycoprotein (Env) on pseudovirus (HIV-1)
[13] = target: HIV-1 MGRM-AG-005 envelope glycoprotein (Env) on pseudovirus (HIV-1)

1443_C16 (PG16) (TCN-116) (antibody), sequence (VH): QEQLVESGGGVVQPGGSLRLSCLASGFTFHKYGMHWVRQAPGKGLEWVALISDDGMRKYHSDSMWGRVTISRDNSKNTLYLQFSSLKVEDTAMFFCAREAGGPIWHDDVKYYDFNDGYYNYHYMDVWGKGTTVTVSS
1443_C16 (PG16) (TCN-116) (antibody), sequence (VL): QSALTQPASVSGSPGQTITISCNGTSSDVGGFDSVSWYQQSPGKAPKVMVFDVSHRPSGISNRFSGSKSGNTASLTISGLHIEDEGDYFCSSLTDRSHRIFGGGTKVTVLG

## 2F5 (antibody)
[1]
  IC90 (pseudovirus neutralization): > 50 µg/mL

## 2G12 (antibody)
[2]
  IC90 (pseudovirus neutralization): > 50 µg/mL
[1]
  IC90 (pseudovirus neutralization): > 50 µg/mL

## 4E10 (antibody)
[2]
  IC90 (pseudovirus neutralization): > 50 µg/mL
[1]
  IC90 (pseudovirus neutralization): 16.4 µg/mL

## 1443_C16 (PG16) (TCN-116) (antibody)
[3]
  IC50, pseudovirus neutralization, 1 hour Virus/Ab Incubation: 0.33 µg/mL
  IC50, pseudovirus neutralization, 18 hour Virus/Ab Incubation: 0.255 µg/mL
[4]
  IC50, pseudovirus neutralization, 1 hour Virus/Ab Incubation: 0.136 µg/mL
  IC50, pseudovirus neutralization, 18 hour Virus/Ab Incubation: 0.0435 µg/mL
[2]
  IC90 (pseudovirus neutralization): 0.207 µg/mL
[1]
  IC90 (pseudovirus neutralization): > 50 µg/mL
[5]
  IC90 (pseudovirus neutralization): 44.3 µg/mL
[6]
  IC50, pseudovirus neutralization, 1 hour Virus/Ab Incubation: < 0.0025 µg/mL
  IC50, pseudovirus neutralization, 18 hour Virus/Ab Incubation: 4.99 µg/mL

## 1495_C14 (PGC14) (antibody)
[3]
  IC50, pseudovirus neutralization, 1 hour Virus/Ab Incubation: > 50 µg/mL
  IC50, pseudovirus neutralization, 18 hour Virus/Ab Incubation: 0.146 µg/mL
[4]
  IC50, pseudovirus neutralization, 1 hour Virus/Ab Incubation: > 50 µg/mL
  IC50, pseudovirus neutralization, 18 hour Virus/Ab Incubation: > 50 µg/mL
[6]
  IC50, pseudovirus neutralization, 1 hour Virus/Ab Incubation: 0.35 µg/mL
  IC50, pseudovirus neutralization, 18 hour Virus/Ab Incubation: 0.15 µg/mL

## 4858_P08 (PGT-123) (antibody)
[7]
  IC50 (µg/mL) neutralization: 0.011 µg/mL
[8]
  IC50 (ug/ml), neutralizing activity: 0.0283 µg/mL
  IC50, pseudovirus neutralization: 0.0283 µg/mL
  IC80, pseudovirus neutralization: 0.0904 µg/mL
  IC90 (pseudovirus neutralization): 0.178 µg/mL
  IC95, pseudovirus neutralization: 0.332 µg/mL
[9]
  IC50 (ug/ml), neutralizing activity: 0.215 µg/mL
  IC50, pseudovirus neutralization: 0.215 µg/mL
  IC80, pseudovirus neutralization: 0.678 µg/mL
  IC90 (pseudovirus neutralization): 1.31 µg/mL
  IC95, pseudovirus neutralization: 2.33 µg/mL
[10]
  neutralization IC50: 0.149 µg/mL
[11]
  IC50 (µg/mL), pseudovirus neutralization: 9.79 µg/mL
[12]
  IC50 (ug/ml), neutralizing activity: 0.18 µg/mL
  IC50, pseudovirus neutralization: 0.18 µg/mL
  IC80, pseudovirus neutralization: 0.539 µg/mL
  IC90 (pseudovirus neutralization): 1.01 µg/mL
  IC95, pseudovirus neutralization: 1.75 µg/mL
[13]
  IC50 (ug/ml), neutralizing activity: 0.104 µg/mL
  IC50, pseudovirus neutralization: 0.104 µg/mL
  IC80, pseudovirus neutralization: 1.28 µg/mL
  IC90 (pseudovirus neutralization): 6.38 µg/mL
  IC95, pseudovirus neutralization: > 10 µg/mL

## 4877_D15 (PGT-122) (antibody)
[7]
  IC50 (µg/mL) neutralization: 0.016 µg/mL
[8]
  IC50 (ug/ml), neutralizing activity: 0.0471 µg/mL
[9]
  IC50 (ug/ml), neutralizing activity: 0.867 µg/mL
[10]
  neutralization IC50: 33.9 µg/mL
[11]
  IC50 (µg/mL), pseudovirus neutralization: > 50 µg/mL
[12]
  IC50 (ug/ml), neutralizing activity: 0.522 µg/mL
[13]
  IC50 (ug/ml), neutralizing activity: > 10 µg/mL

## 5123_A06 (PGT-125) (antibody)
[7]
  IC50 (µg/mL) neutralization: 37.5 µg/mL
[8]
  IC50 (ug/ml), neutralizing activity: 0.0156 µg/mL
  neutralization IC50: 0.0156 µg/mL
  neutralization IC80: 0.0462 µg/mL
  neutralization IC90: 0.0873 µg/mL
  neutralization IC95: 0.157 µg/mL
[9]
  IC50 (ug/ml), neutralizing activity: 2.31 µg/mL
  neutralization IC50: 2.31 µg/mL
  neutralization IC80: > 10 µg/mL
  neutralization IC90: > 10 µg/mL
  neutralization IC95: > 10 µg/mL
[10]
  neutralization IC50: > 50 µg/mL
[11]
  IC50 (µg/mL), pseudovirus neutralization: > 50 µg/mL
[12]
  IC50 (ug/ml), neutralizing activity: 7.31 µg/mL
  neutralization IC50: 7.31 µg/mL
  neutralization IC80: > 10 µg/mL
  neutralization IC90: > 10 µg/mL
  neutralization IC95: > 10 µg/mL
[13]
  IC50 (ug/ml), neutralizing activity: > 10 µg/mL
  neutralization IC50: > 10 µg/mL
  neutralization IC80: > 10 µg/mL
  neutralization IC90: > 10 µg/mL
  neutralization IC95: > 10 µg/mL
